Reference: the supplement of paper PMC9112550, “Optimization of the antimicrobial peptide Bac7 by deep mutational scanning” (BMC Biology, 2022)

Test system: Escherichia coli TOP10
Assay: shrunken log2 fold change of peptide-encoding DNA abundance (4.5 h post-induction vs induction); higher = less antimicrobial activity (less host growth inhibition)
Conditions: time post-induction: 4.5 h; library: site-saturation at positions 5, 18, 19, 20
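Note: peptides expressed intracellularly from a pBAD plasmid library in pooled LB shake-flask culture, induced with 0.3% L-arabinose, DNA abundance read by NGS, three biological replicates, DESeq2 with apeglm shrinkage.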

| Sequence | shrunken log2 fold change |
| --- | --- |
| RRIRTRPPRLPRPRPRPAGLPRP | 0.0286 |
| RRIRYRPPRLPRPRPRPTLAPRP | 0.239 |
| RRIRARPPRLPRPRPRPALRPRP | 0.363 |
| RRIRHRPPRLPRPRPRPHMQPRP | -0.616 |
| RRIRCRPPRLPRPRPRPAFLPRP | -0.214 |
| RRIRKRPPRLPRPRPRPFAFPRP | 0.272 |
| RRIRVRPPRLPRPRPRPASEPRP | 0.0395 |
| RRIRLRPPRLPRPRPRPEYFPRP | -0.0957 |
| RRIRDRPPRLPRPRPRPDGWPRP | 0.965 |
| RRIRHRPPRLPRPRPRPLSYPRP | -0.895 |
| RRIRMRPPRLPRPRPRPGKGPRP | 0.0403 |
| RRIRHRPPRLPRPRPRPNVSPRP | -0.0959 |
| RRIRSRPPRLPRPRPRPNIDPRP | -0.204 |
| RRIRYRPPRLPRPRPRPQVYPRP | -0.169 |
| RRIRWRPPRLPRPRPRPGMWPRP | 0.729 |
| RRIRTRPPRLPRPRPRPMAGPRP | -0.109 |
| RRIRARPPRLPRPRPRPCFQPRP | 0.105 |
| RRIRARPPRLPRPRPRPITRPRP | 0.00663 |
| RRIRRRPPRLPRPRPRPNWYPRP | -0.197 |
| RRIRCRPPRLPRPRPRPPFMPRP | 0.114 |
| RRIRFRPPRLPRPRPRPCREPRP | -0.0892 |
| RRIRKRPPRLPRPRPRPCYPPRP | -0.446 |
| RRIRQRPPRLPRPRPRPITKPRP | -0.0284 |
| RRIRFRPPRLPRPRPRPVDWPRP | 0.194 |
| RRIRTRPPRLPRPRPRPHSMPRP | -0.665 |

| Sequence | shrunken log2 fold change |
| --- | --- |
| RRIRERPPRLPRPRPRPQLIPRP | -0.759 |
| RRIRPRPPRLPRPRPRPWFYPRP | -0.543 |
| RRIRHRPPRLPRPRPRPAKIPRP | -0.0242 |
| RRIRCRPPRLPRPRPRPVQCPRP | 0.207 |
| RRIRFRPPRLPRPRPRPYTLPRP | -1.21 |
| RRIRGRPPRLPRPRPRPKDRPRP | 0.89 |
| RRIRCRPPRLPRPRPRPCGLPRP | 0.0617 |
| RRIRVRPPRLPRPRPRPWTHPRP | -0.104 |
| RRIRVRPPRLPRPRPRPKQVPRP | -0.0801 |
| RRIRARPPRLPRPRPRPKDLPRP | -0.0598 |
| RRIRHRPPRLPRPRPRPFIEPRP | -0.276 |
| RRIRYRPPRLPRPRPRPRIMPRP | -1.06 |
| RRIRMRPPRLPRPRPRPLWTPRP | 0.261 |
| RRIRGRPPRLPRPRPRPCQNPRP | 0.0697 |
| RRIRCRPPRLPRPRPRPCVGPRP | -0.0691 |
| RRIRPRPPRLPRPRPRPKDQPRP | 0.111 |
| RRIRPRPPRLPRPRPRPRAAPRP | 0.611 |
| RRIRSRPPRLPRPRPRPAWWPRP | 0.23 |
| RRIRDRPPRLPRPRPRPQSEPRP | 0.0514 |
| RRIRGRPPRLPRPRPRPTGRPRP | 0.907 |
| RRIRHRPPRLPRPRPRPVLIPRP | -0.113 |
| RRIRFRPPRLPRPRPRPGGIPRP | -0.0183 |
| RRIRMRPPRLPRPRPRPAMLPRP | 1.22 |
| RRIRLRPPRLPRPRPRPAEMPRP | -0.111 |
| RRIRYRPPRLPRPRPRPWFGPRP | -0.0933 |
